Reference: patent US20050282743A1, “Molecular interactions in cells” (Arbor Vita Corporation, priority 2001, published 2005)

T1: GST-INADL PDZ domain 8 (Homo sapiens (Human)), Q8NI35
T1 chain: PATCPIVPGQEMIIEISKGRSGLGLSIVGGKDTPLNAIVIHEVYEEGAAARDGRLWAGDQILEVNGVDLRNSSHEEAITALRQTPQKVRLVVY

T2: GST-PTPL1 PDZ domain 2 (Homo sapiens (Human)), Q12923
T2 chain: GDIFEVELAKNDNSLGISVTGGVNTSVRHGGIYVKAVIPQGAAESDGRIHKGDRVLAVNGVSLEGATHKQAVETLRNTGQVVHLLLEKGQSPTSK

T3: GST-Outer Membrane PDZ domain 1 (Homo sapiens (Human)), P57105
T3 chain: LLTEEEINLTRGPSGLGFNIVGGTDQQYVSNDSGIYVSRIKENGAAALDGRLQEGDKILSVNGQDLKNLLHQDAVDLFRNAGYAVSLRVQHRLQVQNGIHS

T4: GST-NeDLG PDZ domain 2 (Rattus norvegicus (Rat)), Q62936
T4 chain: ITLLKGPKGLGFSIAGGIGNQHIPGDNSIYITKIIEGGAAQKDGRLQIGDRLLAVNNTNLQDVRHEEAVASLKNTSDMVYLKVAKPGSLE

T5: GST-KIAA1634 PDZ domain 2 (Homo sapiens (Human)), Q5TCQ9
T5 chain: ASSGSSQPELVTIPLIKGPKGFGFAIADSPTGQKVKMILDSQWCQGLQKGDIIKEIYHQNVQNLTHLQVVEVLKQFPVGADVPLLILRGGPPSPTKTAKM

T6: GST-DLG1 PDZ domain 2 (Homo sapiens), Q12959
T6 chain: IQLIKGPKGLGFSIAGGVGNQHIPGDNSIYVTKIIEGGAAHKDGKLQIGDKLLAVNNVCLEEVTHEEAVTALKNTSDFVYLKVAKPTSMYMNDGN

T7: GST-FLJ 10324 PDZ domain 1 [GST: P08515]
T7 chain: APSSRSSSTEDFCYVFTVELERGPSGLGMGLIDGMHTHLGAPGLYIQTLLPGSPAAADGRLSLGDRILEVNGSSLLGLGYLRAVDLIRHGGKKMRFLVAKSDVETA

T8: GST-MUPP1 PDZ domain 10 (Homo sapiens (Human)), O75970
T8 chain: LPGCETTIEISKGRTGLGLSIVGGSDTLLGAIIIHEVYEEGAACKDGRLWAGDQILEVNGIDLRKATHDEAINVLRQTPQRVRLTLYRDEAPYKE

T9: GST-MUPP1 PDZ domain 13 (Homo sapiens (Human)), O75970
T9 chain: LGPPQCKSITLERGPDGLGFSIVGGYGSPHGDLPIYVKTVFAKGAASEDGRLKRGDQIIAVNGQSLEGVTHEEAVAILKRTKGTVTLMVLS

T10: GST-MINT1 PDZ domains 1, 2, Q02410
T10 chain: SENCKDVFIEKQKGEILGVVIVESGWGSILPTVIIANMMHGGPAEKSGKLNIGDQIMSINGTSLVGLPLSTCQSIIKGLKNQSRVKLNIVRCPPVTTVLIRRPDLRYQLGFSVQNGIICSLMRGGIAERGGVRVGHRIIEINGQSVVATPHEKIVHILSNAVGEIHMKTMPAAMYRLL

T11: GST-NeDLG PDZ domains 1, 2, Q92796
T11 chain: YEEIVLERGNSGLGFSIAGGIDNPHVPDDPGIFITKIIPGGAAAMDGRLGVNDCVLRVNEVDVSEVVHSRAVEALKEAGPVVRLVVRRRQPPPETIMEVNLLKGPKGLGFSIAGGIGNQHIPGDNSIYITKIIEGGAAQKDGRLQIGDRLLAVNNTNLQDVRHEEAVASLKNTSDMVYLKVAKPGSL

T12: GST-AIPC PDZ domain 1 (Homo sapiens (Human)), O15018
T12 chain: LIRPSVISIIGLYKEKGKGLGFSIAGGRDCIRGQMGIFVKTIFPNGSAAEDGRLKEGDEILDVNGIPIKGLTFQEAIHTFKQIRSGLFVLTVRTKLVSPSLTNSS

T13: GST-KIAA0807(S) PDZ domain 1 (Homo sapiens (Human)), Q6P0Q8
T13 chain: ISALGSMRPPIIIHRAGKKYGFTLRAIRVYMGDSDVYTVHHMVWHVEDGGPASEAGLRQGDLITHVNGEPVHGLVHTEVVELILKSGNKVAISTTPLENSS

T14: GST-DLG2 PDZ domain 2 (Homo sapiens (Human)), Q15700
T14 chain: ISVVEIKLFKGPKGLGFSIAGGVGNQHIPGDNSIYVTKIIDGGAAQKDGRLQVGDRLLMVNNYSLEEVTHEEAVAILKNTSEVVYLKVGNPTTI

T15: GST-ENIGMA PDZ domain 1 (Homo sapiens (Human)), Q9NR12
T15 chain: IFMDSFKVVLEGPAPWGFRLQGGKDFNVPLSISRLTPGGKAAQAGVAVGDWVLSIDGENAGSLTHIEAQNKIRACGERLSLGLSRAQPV

T16: GST-MUPP1 PDZ domain 11 (Homo sapiens (Human)), O75970
T16 chain: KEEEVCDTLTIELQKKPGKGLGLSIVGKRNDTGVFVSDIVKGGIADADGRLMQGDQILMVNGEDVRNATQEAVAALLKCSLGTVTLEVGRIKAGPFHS

T17: GST-HEMBA 1003117 PDZ domain 1 (Homo sapiens (Human)), Q96JH8
T17 chain: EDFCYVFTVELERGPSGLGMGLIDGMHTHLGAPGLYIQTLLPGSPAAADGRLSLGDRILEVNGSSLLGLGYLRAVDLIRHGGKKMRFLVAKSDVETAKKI

T18: GST-PTPL1 PDZ domain 4 (Homo sapiens (Human)), Q12923
T18 chain: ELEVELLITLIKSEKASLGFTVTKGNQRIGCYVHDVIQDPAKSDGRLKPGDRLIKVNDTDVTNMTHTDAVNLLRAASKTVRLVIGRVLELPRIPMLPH

T19: GST-ZO-2 PDZ domain 1 (Homo sapiens (Human)), Q9UDY2
T19 chain: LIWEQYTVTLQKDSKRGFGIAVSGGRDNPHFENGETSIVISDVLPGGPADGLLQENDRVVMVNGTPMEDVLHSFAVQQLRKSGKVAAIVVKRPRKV

T20: GST-ZO-1 PDZ domain 1 (Rattus norvegicus (Rat)), A0A0G2
T20 chain: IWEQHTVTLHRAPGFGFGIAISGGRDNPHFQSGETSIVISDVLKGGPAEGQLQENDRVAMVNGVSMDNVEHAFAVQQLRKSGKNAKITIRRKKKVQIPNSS

T21: GST-AF6 PDZ domain 1 (Homo sapiens (Human)), P55196
T21 chain: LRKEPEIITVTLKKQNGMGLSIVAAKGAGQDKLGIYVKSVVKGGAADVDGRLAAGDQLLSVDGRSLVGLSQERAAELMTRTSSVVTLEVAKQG

T22: GST-TIP1 PDZ domain 1 (Table 9 insert) (Homo sapiens (Human)), O14907
T22 chain: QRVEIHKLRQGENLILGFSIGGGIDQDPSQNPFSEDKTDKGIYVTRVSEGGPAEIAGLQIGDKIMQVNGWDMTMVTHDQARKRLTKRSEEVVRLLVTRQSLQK

T23: GST-ZO-2 PDZ domain 2 (Homo sapiens (Human)), Q9UDY2
T23 chain: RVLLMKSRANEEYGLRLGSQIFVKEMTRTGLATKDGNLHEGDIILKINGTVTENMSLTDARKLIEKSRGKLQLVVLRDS

T24: GST-ZO-1 PDZ domain 2 (Rattus norvegicus (Rat)), A0A0G2
T24 chain: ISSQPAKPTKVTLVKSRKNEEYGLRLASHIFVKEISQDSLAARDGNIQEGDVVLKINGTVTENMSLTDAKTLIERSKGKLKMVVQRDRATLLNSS

T25: GST-APXL-1 PDZ domain 1 (Homo sapiens (Human)), Q13796
T25 chain: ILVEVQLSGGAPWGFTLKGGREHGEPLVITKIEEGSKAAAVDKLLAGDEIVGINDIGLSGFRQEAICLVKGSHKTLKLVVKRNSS

T26: GST-MINT1 PDZ domain 2 (Mus musculus (Mouse)), B2RUJ5
T26 chain: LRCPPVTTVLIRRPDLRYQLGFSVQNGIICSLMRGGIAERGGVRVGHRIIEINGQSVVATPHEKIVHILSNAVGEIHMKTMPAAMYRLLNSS

T27: GST-X-11 beta PDZ domain 2 (Rattus norvegicus (Rat)), O35431
T27 chain: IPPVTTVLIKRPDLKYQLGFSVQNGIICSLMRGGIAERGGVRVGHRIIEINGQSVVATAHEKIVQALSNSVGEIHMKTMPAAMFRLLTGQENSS


Legend:
Experiment in all cases: G' assay
[1] = target: T1, GST-INADL PDZ domain 8 (Homo sapiens …)
[2] = target: GST-KIAA1634 PDZ domain 1 (Homo sapiens (Human)), Q5TCQ9
[3] = target: T2, GST-PTPL1 PDZ domain 2 (Homo sapiens …)
[4] = target: T3, GST-Outer Membrane PDZ domain 1 (Homo …)
[5] = target: T4, GST-NeDLG PDZ domain 2 (Rattus …)
[6] = target: T5, GST-KIAA1634 PDZ domain 2 (Homo sapiens …)
[7] = target: GST-PSD95 PDZ domains 1, 2, 3 (Homo sapiens), P78352
[8] = target: GST-BAI-1 Associated Protein PDZ domain 2 (Mus musculus (Mouse)), Q6RHR9
[9] = target: GST-PSD95 PDZ domain 1 (Homo sapiens)
[10] = target: GST-KIAA807 [GST: P08515]
[11] = target: T6, GST-DLG1 PDZ domain 2 (Homo sapiens), …
[12] = target: GST-BAI-1 Associated Protein PDZ domain 5 (Homo sapiens (Human)), Q96QZ7
[13] = target: T7, GST-FLJ 10324 PDZ domain 1 [GST: P08515]
[14] = target: T8, GST-MUPP1 PDZ domain 10 (Homo sapiens …)
[15] = target: GST-DLG1 PDZ domain 1 (Homo sapiens), Q12959
[16] = target: T9, GST-MUPP1 PDZ domain 13 (Homo sapiens …)
[17] = target: T10, GST-MINT1 PDZ domains 1, 2, Q02410
[18] = target: T11, GST-NeDLG PDZ domains 1, 2, Q92796
[19] = target: T12, GST-AIPC PDZ domain 1 (Homo sapiens …)
[20] = target: T13, GST-KIAA0807(S) PDZ domain 1 (Homo …)
[21] = target: GST-KIAA0147 PDZ domain 1 (Homo sapiens (Human)), Q14160
[22] = target: T14, GST-DLG2 PDZ domain 2 (Homo sapiens …)
[23] = target: T15, GST-ENIGMA PDZ domain 1 (Homo sapiens …)
[24] = target: GST-DLG1 PDZ domains 1, 2 (Homo sapiens), Q12959
[25] = target: T16, GST-MUPP1 PDZ domain 11 (Homo sapiens …)
[26] = target: GST-PIST PDZ domain 1 (Mus musculus (Mouse)), Q8BH60
[27] = target: T17, GST-HEMBA 1003117 PDZ domain 1 (Homo …)
[28] = target: T18, GST-PTPL1 PDZ domain 4 (Homo sapiens …)
[29] = target: T19, GST-ZO-2 PDZ domain 1 (Homo sapiens …)
[30] = target: T20, GST-ZO-1 PDZ domain 1 (Rattus …)
[31] = target: T21, GST-AF6 PDZ domain 1 (Homo sapiens …)
[32] = target: T22, GST-TIP1 PDZ domain 1 (Table 9 insert) …
[33] = target: T23, GST-ZO-2 PDZ domain 2 (Homo sapiens …)
[34] = target: T24, GST-ZO-1 PDZ domain 2 (Rattus …)
[35] = target: T25, GST-APXL-1 PDZ domain 1 (Homo sapiens …)
[36] = target: T26, GST-MINT1 PDZ domain 2 (Mus musculus …)
[37] = target: T27, GST-X-11 beta PDZ domain 2 (Rattus …)
[38] = target: GST-BAI-1 Associated Protein PDZ domain 4 (Homo sapiens (Human)), Q96QZ7
Also: key of the grades not given here.

GST-KIAA1634 PDZ domain 1 (Homo sapiens (Human)), Q5TCQ9, sequence (Q5TCQ9 401-502): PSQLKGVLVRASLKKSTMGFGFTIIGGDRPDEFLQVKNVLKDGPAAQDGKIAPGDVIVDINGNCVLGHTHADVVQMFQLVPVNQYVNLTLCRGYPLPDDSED
GST-KIAA807 [GST: P08515], sequence (P08515 whole entry, the tested form may be a part): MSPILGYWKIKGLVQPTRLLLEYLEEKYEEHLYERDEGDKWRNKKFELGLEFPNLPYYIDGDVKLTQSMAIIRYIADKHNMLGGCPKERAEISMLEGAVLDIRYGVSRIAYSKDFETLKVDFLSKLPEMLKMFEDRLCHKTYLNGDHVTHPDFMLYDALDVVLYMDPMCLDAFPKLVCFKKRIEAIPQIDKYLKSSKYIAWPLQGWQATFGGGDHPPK
GST-PSD95 PDZ domains 1, 2, 3 (Homo sapiens), P78352, sequence (P78352 62-395): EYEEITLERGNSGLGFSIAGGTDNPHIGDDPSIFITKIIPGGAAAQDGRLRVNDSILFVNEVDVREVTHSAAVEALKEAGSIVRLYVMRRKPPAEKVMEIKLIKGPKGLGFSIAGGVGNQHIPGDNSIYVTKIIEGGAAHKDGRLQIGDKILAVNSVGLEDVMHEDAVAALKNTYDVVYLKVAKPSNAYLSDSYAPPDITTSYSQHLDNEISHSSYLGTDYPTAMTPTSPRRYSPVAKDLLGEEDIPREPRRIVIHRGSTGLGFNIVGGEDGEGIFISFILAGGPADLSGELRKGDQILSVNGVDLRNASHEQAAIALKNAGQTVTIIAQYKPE
GST-BAI-1 Associated Protein PDZ domain 4 (Homo sapiens (Human)), Q96QZ7, sequence (Q96QZ7 other isoform, or with tags, fused parts or gaps): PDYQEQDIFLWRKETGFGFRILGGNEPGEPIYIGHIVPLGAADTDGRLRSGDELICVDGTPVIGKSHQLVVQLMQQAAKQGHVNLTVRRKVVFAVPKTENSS
GST-KIAA0147 PDZ domain 1 (Homo sapiens (Human)), Q14160, sequence (Q14160 other isoform, or with tags, fused parts or gaps): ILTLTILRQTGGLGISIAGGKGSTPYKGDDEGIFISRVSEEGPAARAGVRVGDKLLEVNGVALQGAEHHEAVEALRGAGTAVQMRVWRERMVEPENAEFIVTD
GST-BAI-1 Associated Protein PDZ domain 5 (Homo sapiens (Human)), Q96QZ7, sequence (Q96QZ7 988-1099): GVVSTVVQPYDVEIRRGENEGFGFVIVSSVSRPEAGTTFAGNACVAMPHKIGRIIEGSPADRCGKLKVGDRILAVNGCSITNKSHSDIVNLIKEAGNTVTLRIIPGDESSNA
GST-BAI-1 Associated Protein PDZ domain 2 (Mus musculus (Mouse)), Q6RHR9, sequence (Q6RHR9 455-558): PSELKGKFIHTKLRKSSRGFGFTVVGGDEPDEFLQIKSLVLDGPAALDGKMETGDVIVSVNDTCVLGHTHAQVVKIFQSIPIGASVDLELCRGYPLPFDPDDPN

| Classification [2] | Classification [7] | Classification [10] | Classification [11] | Classification [13] | Classification [14] | Classification [17] | Classification [18] | Classification [19] | Classification [20] | Classification [23] | Classification [24] | Classification [28] | Classification [35] | Binder | other results |
| --- | --- | --- | --- | --- | --- | --- | --- | --- | --- | --- | --- | --- | --- | --- | --- |
| 1 A450 class | 2 A450 class | 1 A450 class | 1 A450 class | 1 A450 class | 1 A450 class | 1 A450 class | 2 A450 class | 1 A450 class | – | – | – | – | – | ISGTPTSTMVHGMTSSSSVV (modifications not checked) [Clasp-2] | Classification [1]: 1 A450 class; Classification [3]: 1 A450 class; Classification [4]: 1 A450 class; Classification [5]: 1 A450 class; Classification [6]: 1 A450 class; Classification [8]: 1 A450 class; Classification [9]: 1 A450 class; Classification [12]: 1 A450 class; Classification [15]: 1 A450 class; Classification [16]: 1 A450 class |
| 4 A450 class | 2 A450 class | – | 1 A450 class | – | – | – | 2 A450 class | 2 A450 class | 1 A450 class | 1 A450 class | 2 A450 class | – | – | GGGGGSGGGGGSGIESVKI (modifications not checked) [GLUR2 (glutamate receptor 2-modified)] | Classification [21]: 1 A450 class; Classification [22]: 1 A450 class |
| – | – | – | – | 1 A450 class | – | – | – | – | – | – | 1 A450 class | 1 A450 class | – | GPVPGEPAKPKTSAHHATFV (modifications not checked) [RGS12 (regulator of G-protein signaling 12] | Classification [25]: 1 A450 class; Classification [26]: 1 A450 class; Classification [27]: 1 A450 class; Classification [29]: 1 A450 class; Classification [30]: 1 A450 class; Classification [31]: 1 A450 class; Classification [32]: 1 A450 class |
| – | – | – | – | – | – | – | – | – | – | – | – | – | – | PSSRASSRASSRPRPDDLEI (modifications not checked) [CX43 (connexin 43)] | Classification [33]: 1 A450 class; Classification [34]: 2 A450 class |
| – | – | – | – | – | – | – | – | – | – | 1 A450 class | – | – | 1 A450 class | EVIGYIEKPGVETLEDSVF (modifications not checked) [CDW125 (modified)] | – |
| – | – | 1 A450 class | – | – | 1 A450 class | 1 A450 class | – | – | 1 A450 class | – | – | 1 A450 class | 1 A450 class | NGGFAVDKSDTISFTQTSQF (modifications not checked) [glutamate transporter 3] | Classification [36]: 1 A450 class; Classification [37]: 1 A450 class; Classification [38]: 1 A450 class |
